The labels stand for the following.
B1: Hairpin Ribozyme (parent)
chain: GUCCUCUUUCACGUGCGCGUGAAAGAGAGAAGUGAACCAGAGAAACACACGUUGUGGUAUAUUACCUGGUA

In the data set the parent is B1. As to the kind of experiment: self-cleavage, relative activity (ratio to wild type); higher = more cleavage; co-transcriptional.
Take C48U G57C: the self-cleavage worked out at 0.163.

Regarding G21A G42C, the self-cleavage was determined as 0.281.

In the case of G17U C46A, the self-cleavage is 0.152.

On to G1A C3U, for which the self-cleavage was 0.136.

In the case of G13C G40C, the self-cleavage worked out at 0.11.

Turning to C38A U63C, the self-cleavage was 0.0636.

Regarding C50A U67C, the self-cleavage worked out at 0.0958.

Take G29C A30G: the self-cleavage came to 0.218.

As to U7A U55G, the self-cleavage worked out at 0.205.

For the variant G15U G69C, the self-cleavage was found to be 0.434.

For the variant U5G A71C, the self-cleavage is 0.732.

Consider A22C U55C, for which the self-cleavage was 0.247.

As to G40A A43C, the self-cleavage was determined as 0.147.

On to A39G G51C, for which the self-cleavage worked out at 0.232.

As to C6A G21C, the self-cleavage is 0.364.

Regarding A28G A35C, the self-cleavage is 1.27.

For U8G A36G, the self-cleavage worked out at 0.76.

G17A A41C: the self-cleavage amounted to 1.38.

Take C18G C37A: the self-cleavage was determined as 0.235.

Take G42C A47U: the self-cleavage was found to be 0.147.

On to U55G A71U, for which the self-cleavage is 0.209.

On to U8A G15U, for which the self-cleavage is 0.888.

For U20G A61C, the self-cleavage stood at 0.11.

Regarding A61G C65A, the self-cleavage came to 0.159.

Consider C4G U58G, for which the self-cleavage was determined as 0.241.

On to G34U U67C, for which the self-cleavage was 0.976.

As to C48G A49U, the self-cleavage amounted to 0.104.

Turning to A24U A36C, the self-cleavage stood at 0.517.

As for A64G G68C, the self-cleavage came to 0.122.

For A36G A71U, the self-cleavage worked out at 1.04.

Take C6U C48G: the self-cleavage was 0.116.

A22G G25A: the self-cleavage amounted to 0.623.

Consider C6U A26C, for which the self-cleavage turned out to be 0.29.

With A26U C48U, the self-cleavage worked out at 0.0687.

For U63C U70G, the self-cleavage amounted to 0.248.

In the case of G13U C37G, the self-cleavage worked out at 0.384.

On to U9A G42A, for which the self-cleavage was found to be 0.132.

Regarding U14A A28C, the self-cleavage came to 0.454.

Take A35U A45C: the self-cleavage was determined as 0.112.

With A24G C38U, the self-cleavage was found to be 0.31.

As to C12U G13U, the self-cleavage is 0.828.

For G17A G56U, the self-cleavage came out at 0.137.

For the variant A35U G56U, the self-cleavage came to 0.221.

For the variant U2A A26C, the self-cleavage turned out to be 0.311.

On to A22G C46U, for which the self-cleavage was determined as 0.0765.

Regarding A28G A30C, the self-cleavage was 0.0631.

In the case of C12A G25U, the self-cleavage is 0.559.

Turning to C18U A41G, the self-cleavage was 1.04.

In the case of G32C A45G, the self-cleavage stood at 0.0948.

For C10A U55C, the self-cleavage turned out to be 0.248.

As for C66U A71G, the self-cleavage stood at 0.484.

Regarding G25U A64U, the self-cleavage worked out at 0.142.

Consider C37A A61U, for which the self-cleavage was 0.142.

U5C G19A: the self-cleavage was determined as 0.422.

As to A44C U55A, the self-cleavage was determined as 0.0312.

Turning to C3A A47C, the self-cleavage turned out to be 0.239.

For U5G G54A, the self-cleavage was determined as 0.204.

Take U5G G51U: the self-cleavage is 0.534.

As for U7G G21C, the self-cleavage stood at 0.332.

In the case of A31G G69U, the self-cleavage is 0.258.

As to G40C A41C, the self-cleavage is 0.108.

As to G17U G69U, the self-cleavage is 0.258.

Consider G27U A43C, for which the self-cleavage worked out at 0.0898.

On to C16G U33A, for which the self-cleavage worked out at 0.105.

With A44U A71C, the self-cleavage is 0.3.

Consider G51A G69A, for which the self-cleavage stood at 0.596.

Consider G51A G69U, for which the self-cleavage came to 0.439.

Consider G13U G68U, for which the self-cleavage was found to be 0.243.

Regarding U14C A23C, the self-cleavage stood at 0.693.

With A31C U70G, the self-cleavage was 0.0868.

Regarding A49U G69U, the self-cleavage amounted to 0.193.

Turning to C37G U53G, the self-cleavage came to 0.238.

Take A39G U52G: the self-cleavage came to 0.3.

A24U U62C: the self-cleavage was 0.293.

Regarding G15U A59G, the self-cleavage stood at 0.161.

For the variant U52G A64G, the self-cleavage was 0.301.

With C37G C38A, the self-cleavage amounted to 0.152.

For A28G U60A, the self-cleavage came out at 0.661.

On to G27A U70C, for which the self-cleavage is 0.391.

Regarding U9A G34C, the self-cleavage was 1.08.

With U20G G68U, the self-cleavage stood at 0.297.

For the variant A28U A59U, the self-cleavage was determined as 0.185.

With C18A A22G, the self-cleavage amounted to 0.857.

With G32U U60C, the self-cleavage came out at 0.0374.

Turning to U9A A30C, the self-cleavage amounted to 0.172.

On to C12U A22G, for which the self-cleavage came to 0.748.

Take G1C G54C: the self-cleavage amounted to 0.072.

Turning to C38A A49U, the self-cleavage is 0.0928.

A30U U63A: the self-cleavage worked out at 0.13.

As for U55C U60C, the self-cleavage worked out at 0.4.

On to A31U U62C, for which the self-cleavage is 0.147.

For the variant C3G A43C, the self-cleavage is 0.168.

Regarding G34A U53G, the self-cleavage was found to be 1.17.

A11C G21U: the self-cleavage came out at 0.799.

As for U2G U9C, the self-cleavage amounted to 0.231.

For A39U A44C, the self-cleavage is 0.127.

For the variant G29C U63G, the self-cleavage was 0.0807.

G32U C48A: the self-cleavage turned out to be 0.0918.

As for C37G U58C, the self-cleavage is 0.335.

Turning to U20G G34C, the self-cleavage worked out at 1.14.

A36G G68A: the self-cleavage came out at 0.306.

A30U A43G: the self-cleavage is 0.108.

With U33C A44U, the self-cleavage was 0.195.

A49C U55C: the self-cleavage is 0.273.

On to A36U U62A, for which the self-cleavage is 0.154.

A11C G32A: the self-cleavage was determined as 0.179.

Regarding U5A G17C, the self-cleavage worked out at 0.204.

A31G G32C: the self-cleavage stood at 0.0299.

On to G21U A43U, for which the self-cleavage came out at 0.129.

Take G56A C65U: the self-cleavage was found to be 0.104.

Regarding U20A A61G, the self-cleavage turned out to be 0.11.

Regarding C12U U70G, the self-cleavage stood at 0.659.

Turning to G1C C4U, the self-cleavage came out at 0.228.

Turning to G1C C4A, the self-cleavage was 0.126.

Turning to C6U G54U, the self-cleavage worked out at 0.371.

U20C C50G: the self-cleavage is 0.262.

As to U8G G13A, the self-cleavage was 0.618.

Turning to C48G U53A, the self-cleavage is 0.101.

On to A24G A59C, for which the self-cleavage was found to be 0.213.

In the case of G34U G57C, the self-cleavage came out at 0.552.

Take A11C G13C: the self-cleavage is 0.503.

Regarding C3U A64C, the self-cleavage was 0.0981.

G34C C46G: the self-cleavage was found to be 0.0437.

As for A28G G40A, the self-cleavage is 0.426.

Take G13U A44C: the self-cleavage is 0.0986.

C18A G54C: the self-cleavage was 0.395.

Take G15A G56U: the self-cleavage was 0.134.

As for G21C G27C, the self-cleavage was found to be 0.134.

As to A31C A61C, the self-cleavage is 0.194.

For the variant G27U U33G, the self-cleavage is 0.145.

G54U U60A: the self-cleavage stood at 0.252.

Consider A11U G51C, for which the self-cleavage came out at 0.706.

Take G1C A45U: the self-cleavage worked out at 0.217.

As to C3G A28C, the self-cleavage worked out at 0.541.

Take U7C G57U: the self-cleavage is 0.213.

On to G51U A59G, for which the self-cleavage is 0.138.

As to G17C U20C, the self-cleavage was 0.585.

C12G G69U: the self-cleavage was 0.259.

With G57C G68U, the self-cleavage stood at 0.172.

For the variant G51A G57C, the self-cleavage worked out at 0.158.

For the variant A22C A44U, the self-cleavage is 0.221.

In the case of A23C C46A, the self-cleavage came out at 0.131.

Turning to U8C A71C, the self-cleavage turned out to be 1.11.

In the case of G1A C66A, the self-cleavage amounted to 0.164.

In the case of U9G A45U, the self-cleavage worked out at 0.0827.

U5C G32A: the self-cleavage stood at 0.162.

Take G21U A64U: the self-cleavage was 0.113.

As to A45C U60C, the self-cleavage worked out at 0.293.

C3A C65A: the self-cleavage stood at 0.662.

G25A U67A: the self-cleavage is 0.118.

On to G19C A30U, for which the self-cleavage is 0.161.

In the case of U9A G69U, the self-cleavage is 0.245.

Turning to G21U A47G, the self-cleavage came out at 0.208.

C3U A44G: the self-cleavage was determined as 0.254.

With G25U A47U, the self-cleavage amounted to 0.205.

In the case of C18U G32U, the self-cleavage came out at 0.118.

In the case of A28U G32U, the self-cleavage came to 0.258.

With U8G A22C, the self-cleavage was 0.556.

Turning to U9G A26C, the self-cleavage is 0.418.

For A23C G69C, the self-cleavage was 0.244.

For G34C C48G, the self-cleavage worked out at 0.16.

U55G C65G: the self-cleavage was found to be 0.256.

For G25U C37G, the self-cleavage came out at 0.182.

With G1U C10A, the self-cleavage is 0.151.

As for U5G G21A, the self-cleavage was determined as 0.17.

As for G51A U55G, the self-cleavage is 0.407.

Take A31U A47G: the self-cleavage was found to be 0.101.

These data come from the RNAGym collection of RNA variant scans (doi:10.7554/elife.80360).
